Experimental data as given in publication PMC4747207 (2015).

Molecular target: GST-Skp1 (Homo sapiens (Human), UniProt P63208)
Assay: GST pull-down, Western blot

Sequence of GST-Skp1 (P63208 whole entry): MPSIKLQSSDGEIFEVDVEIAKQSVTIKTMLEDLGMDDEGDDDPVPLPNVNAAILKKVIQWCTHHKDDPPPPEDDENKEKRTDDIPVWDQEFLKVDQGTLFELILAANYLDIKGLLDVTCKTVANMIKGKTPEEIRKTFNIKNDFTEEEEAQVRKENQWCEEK

B1: Recombinant human MAGE-C2 protein (protein)
chain: MPPVPGVPFRNVDNDSPTSVELEDWVDAQHPTDEEEEEASSASSTLYLVFSPSSFSTSSSLILGGPEEEEVPSGVIPNLTESIPSSPPQGPPQGPSQSPLSSCCSSFSWSSFSEESSSQKGEDTGTCQGLPDSESSFTYTLDEKVAELVEFLLLKYEAEEPVTEAEMLMIVIKYKDYFPVILKRAREFMELLFGLALIEVGPDHFCVFANTVGLTDEGSDDEGMPENSLLIIILSVIFIKGNCASEEVIWEVLNAVGVYAGREHFVYGEPRELLTKVWVQGHYLEYREVPHSSPPYYEFLWGPRAHSESIKKKVLEFLAKLNNTVPSSFPSWYKDALKDVEERVQATIDTADDATVMASESLSVMSSNVSFSE
- binding result: no binding
